Assay results published in patent US20260274985A1 (MYTHIC THERAPEUTICS, published 2026).
Positions count from the first letter of the chain named. One block for each binder: values may come before it.

Target: T1, Human TROP2 Protein, His Tag (Acro Biosystems) (human, UniProt P09758 27-274)
T1 construct: not shown: His tag
T1 sequence (looked up): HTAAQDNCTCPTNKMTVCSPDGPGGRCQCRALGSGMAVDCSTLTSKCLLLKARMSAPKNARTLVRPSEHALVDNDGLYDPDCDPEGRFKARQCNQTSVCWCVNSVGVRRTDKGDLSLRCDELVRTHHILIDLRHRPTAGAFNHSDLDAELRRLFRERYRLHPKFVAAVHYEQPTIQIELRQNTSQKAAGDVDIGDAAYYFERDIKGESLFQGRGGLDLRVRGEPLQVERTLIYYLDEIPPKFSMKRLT
Experiment: Octet (BLI); antigen and pH not given

B1: MYT11691 (antibody, V domains shown)
VH: QVQLVQSGAEVKKPGASVKVSCKASGYTFTTAGMQWVRQAPGQGLEWMGWINTHSGVPKYAEDFKGRVTISADTSTSTAYLQLSSLKSEDTAVYYCARSGFGSSYWYFDVWGQGTLVTVSS
VL: DIQMTQSPSSLSASVGDRVTITCKASQDVSTAVAWYQQKPGKAPKLLIYSASHRYTGVPSRFSGSGSGTDFTLTISSLQPEDFAVYYCQQHYITPLTFGQGTKLEIK
notes: IgG; also called Datopotamab LC variant
Kd: 6.03 nM
Octet response at 33.33 nM (Y-Axis) nm: 0.0719 nm

B4: MYT13433 (antibody, V domains shown)
VH: QVQLQQSGSELKKPGASVKVSCKASGYTFTNYGMNWVKQAPGQGLKWMGWINTYTGEPTYTHDFKGRFAFSLDTSVSTAYLQISSLKADDTAVYFCARGGFGSSYWYFDVWGQGSLVTVSS
VL: B1 VL with M4L, T20S, T31I, A51H, S60D, I93H, Q100A, L104V
notes: IgG; also called Sacituzumab HC-LC pairing variant
Kd: 4.36 nM
Octet response at 33.33 nM (Y-Axis) nm: 0.12 nm

B5: MYT13265 (antibody, V domains shown)
VH: B1 VH with R98H
VL: B1 VL
notes: Full-length IgG; also called Datopotamab HC-LC pairing variant
Kd: 9.5 nM
Octet response at 33.33 nM (Y-Axis) nm: 0.0712 nm

B6: MYT13429 (antibody, V domains shown)
VH: B4 VH with H62D, G66H
VL: B1 VL with M4L, T20S, S30H, T31I, A51H, H53Y, S60D, I93H, Q100A, L104V
notes: as for B4
Kd: 2.85 nM
Octet response at 33.33 nM (Y-Axis) nm: 0.122 nm

B9: MYT13283 (antibody, V domains shown)
VH: QVQLQESGPGLVKPSETLSLTCTVSGGSISSYGVHWIRQPPGKGLEWIGVIWTSGVTDYNSALMGRVTISVDTSKNQFSLKLSSVTAADTAVYYCARDGDYHRYTMDYWGQGTLVTVSS
VL: DIVMTQSPDSLAVSLGERATINCRASKSVSTSGYSYMHWYQQKPGQPPKLLIYLASNLEHGVPDRFSGSGSGTDFTLTISSLQAEDVAVYYCQHSRELPYTFGQGTKLEIK
notes: Full-length IgG; also called h7E6SVG HC-LC pairing variant
Kd: 5.32 nM
Octet response at 33.33 nM (Y-Axis) nm: 0.108 nm

B10: MYT13290 (antibody, V domains shown)
VH: B9 VH with H102D, M106H
VL: B9 VL with H60S, Q93H
notes: as for B9
Kd: 7.45 nM
Octet response at 33.33 nM (Y-Axis) nm: 0.103 nm

These reach a lower Kd. Values come first.

Kd: 1.97 nM
Octet response at 33.33 nM (Y-Axis) nm: 0.123 nm
B7: MYT13424 (antibody, V domains shown)
VH: B4 VH with Y60H, H62D
VL: B1 VL with M4L, T20S, S30H, T31I, A51H, H53Y, S60D, I93H, Q100A, L104V
notes: as for B4

Kd: 1.51 nM
Octet response at 33.33 nM (Y-Axis) nm: 0.132 nm
B3: MYT13426 (antibody, V domains shown)
VH: B4 VH with H62D, D63H
VL: B1 VL with M4L, T20S, S30H, T31I, A51H, H53Y, S60D, I93H, Q100A, L104V
notes: as for B4

Kd: 1.03 nM
Octet response at 33.33 nM (Y-Axis) nm: 0.14 nm
B2: MYT13368 (antibody, V domains shown)
VH: B4 VH with Y60H, H62D
VL: B1 VL with M4L, T20S, S30H, T31I, V33H, H53Y, S60D, Q100A, L104V
notes: as for B4

Kd: 0.009 nM
Octet response at 33.33 nM (Y-Axis) nm: 0.077 nm
B8: MYT13160 (antibody, V domains shown)
VH: B4 VH with Y32H, H62D
VL: B1 VL with M4L, T20S, S30H, T31I, H53Y, S60D, Q100A, L104V
notes: as for B4
